According to article PMC9209732, “Transcriptional Regulation of ING5 and its Suppressive Effects on Gastric Cancer”:

Biological target: YY1 (UniProt P25490 1-414)
Assay: EMSA; EMSA: 5-10 ug protein, 50 nM probe, 5% non-denaturing PAGE, streptavidin-HRP/ECL; buffer, salt, pH and temperature not stated
Settings: protein: recombinant; tags: His (GST also stated in Results); label: 3' biotin; blunt

YY1, sequence (P25490 whole entry): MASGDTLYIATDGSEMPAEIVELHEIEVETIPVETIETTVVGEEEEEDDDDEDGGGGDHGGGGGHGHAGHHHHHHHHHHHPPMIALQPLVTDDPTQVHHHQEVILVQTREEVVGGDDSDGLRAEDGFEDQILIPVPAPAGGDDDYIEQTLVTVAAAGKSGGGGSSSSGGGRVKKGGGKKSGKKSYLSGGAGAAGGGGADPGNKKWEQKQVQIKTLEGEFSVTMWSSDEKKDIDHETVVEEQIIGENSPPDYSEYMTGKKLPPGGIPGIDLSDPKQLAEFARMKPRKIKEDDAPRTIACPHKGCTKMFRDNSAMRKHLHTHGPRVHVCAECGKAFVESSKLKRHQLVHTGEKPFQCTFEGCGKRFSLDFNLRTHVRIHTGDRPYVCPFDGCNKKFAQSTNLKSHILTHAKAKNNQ

B1: ING5 promoter probe (-48 to 25) (dsDNA)
DNA 1: CGCTGGCACCGCCCCGCCCCCGCCTCCCGCGGCACCGCCCGCCCGCGCAGACCCCGAGCGCGGCCGCGGACGAA
DNA 2: TTCGTCCGCGGCCGCGCTCGGGGTCTGCGCGGGCGGGCGGTGCCGCGGGAGGCGGGGGCGGGGCGGTGCCAGCG
B1: binds.
